Laboratory results published in publication PMC4786784 (Nature Communications, 2016).

What was measured:
U2AF65 1,2L FRET [1] = target: T1, U2AF65 1,2L FRET (human, UniProt P26368 113-343, A181C;C305A;Q324C); assay: smFRET; slide-tethered protein, 10 uM RNA; Anisotropy: 100 mM NaCl, 15 mM HEPES pH 6.8, 0.2 mM TCEP, 0.1 U/ul Superase-In, 30 nM RNA, 23 C; smFRET: 50 mM HEPES pH 7.4, 100 mM NaCl, room temperature
dU2AF65 1,2L = dU2AF65 1,2L (human, UniProt P26368 141-342, del238-257); assay: fluorescence anisotropy; Anisotropy: 100 mM NaCl, 15 mM HEPES pH 6.8, 0.2 mM TCEP, 0.1 U/ul Superase-In, 30 nM RNA, 23 C; smFRET: 50 mM HEPES pH 7.4, 100 mM NaCl, room temperature
dU2AF65 1,2L, sequence (P26368 other isoform, or with tags, fused parts or gaps del238-257): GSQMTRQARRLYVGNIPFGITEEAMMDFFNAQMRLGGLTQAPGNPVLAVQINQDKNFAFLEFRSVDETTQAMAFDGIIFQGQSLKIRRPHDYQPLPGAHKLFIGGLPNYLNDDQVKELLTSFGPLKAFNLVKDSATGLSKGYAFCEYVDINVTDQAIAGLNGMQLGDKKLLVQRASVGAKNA

flU2AF65;U2AF35-UHM = flU2AF65;U2AF35-UHM (human;human, UniProt P26368;Q01081 1-475;43-146, |); assay: as above
flU2AF65;U2AF35-UHM, sequence (P26368 whole entry, one chain of several): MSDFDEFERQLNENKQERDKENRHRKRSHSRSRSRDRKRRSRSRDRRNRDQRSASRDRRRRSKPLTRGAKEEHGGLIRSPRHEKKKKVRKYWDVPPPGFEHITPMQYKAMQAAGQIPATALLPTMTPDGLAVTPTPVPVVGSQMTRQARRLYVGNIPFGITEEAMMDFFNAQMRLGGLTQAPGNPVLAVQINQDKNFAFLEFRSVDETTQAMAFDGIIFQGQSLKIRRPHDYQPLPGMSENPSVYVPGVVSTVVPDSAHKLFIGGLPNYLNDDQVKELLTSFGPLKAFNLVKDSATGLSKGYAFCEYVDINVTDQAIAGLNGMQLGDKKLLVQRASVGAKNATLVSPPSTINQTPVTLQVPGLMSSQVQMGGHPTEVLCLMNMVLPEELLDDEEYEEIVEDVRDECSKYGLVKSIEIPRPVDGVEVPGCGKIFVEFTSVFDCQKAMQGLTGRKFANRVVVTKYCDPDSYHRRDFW

dU2AF65 1,2 = dU2AF65 1,2 (human, UniProt P26368 148-336, del238-257); assay: as above
dU2AF65 1,2, sequence (P26368 other isoform, or with tags, fused parts or gaps del238-257): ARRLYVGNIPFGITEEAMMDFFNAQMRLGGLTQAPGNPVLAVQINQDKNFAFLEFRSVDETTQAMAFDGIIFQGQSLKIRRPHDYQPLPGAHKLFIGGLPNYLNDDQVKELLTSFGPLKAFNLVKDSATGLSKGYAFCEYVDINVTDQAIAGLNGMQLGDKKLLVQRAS

U2AF65 1,2L 5Gly = U2AF65 1,2L 5Gly (human, UniProt P26368 141-342, S251G;T252G;V253G;V254G;P255G); assay: as above
U2AF65 1,2L 5Gly, sequence (P26368 141-342 S251G/T252G/V253G/V254G/P255G, one chain of several): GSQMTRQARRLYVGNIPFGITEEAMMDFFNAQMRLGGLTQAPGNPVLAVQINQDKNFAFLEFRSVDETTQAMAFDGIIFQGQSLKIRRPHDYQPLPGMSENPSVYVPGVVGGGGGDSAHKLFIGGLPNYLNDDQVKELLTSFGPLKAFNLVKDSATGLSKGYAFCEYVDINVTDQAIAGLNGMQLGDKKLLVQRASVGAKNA

U2AF65 1,2L NLALA = U2AF65 1,2L NLALA (human, UniProt P26368 141-342, S251N;T252L;V253A;V254L;P255A); assay: as above
U2AF65 1,2L NLALA, sequence (P26368 141-342 S251N/T252L/V253A/V254L/P255A, one chain of several): as the sequence (P26368 141-342 S251G/T252G/V253G/V254G/P255G, one chain of several) above, with G111N, G112L, G113A, G114L, G115A counted along it

U2AF65 1,2L V254P = U2AF65 1,2L V254P (human, UniProt P26368 141-342, V254P); assay: as above
U2AF65 1,2L V254P, sequence (P26368 141-342 V254P, one chain of several): as the sequence (P26368 141-342 S251G/T252G/V253G/V254G/P255G, one chain of several) above, with G111S, G112T, G113V, G114P, G115P counted along it

U2AF65 1,2L R227A = U2AF65 1,2L R227A (human, UniProt P26368 141-342, R227A); assay: as above
U2AF65 1,2L R227A, sequence (P26368 141-342 R227A, one chain of several): as the sequence (P26368 141-342 S251G/T252G/V253G/V254G/P255G, one chain of several) above, with R87A, G111S, G112T, G113V, G114V, G115P counted along it

U2AF65 1,2L 12Gly = U2AF65 1,2L 12Gly (human, UniProt P26368 141-342, M144G;L235G;M238G;V244G;V246G;V249G;V250G;S251G;T252G;V253G;V254G;P255G); assay: as above
U2AF65 1,2L 12Gly, sequence (P26368 141-342 M144G/L235G/M238G/V244G/V246G/V249G/V250G/S251G/T252G/V253G/V254G/P255G, one chain of several): as the sequence (P26368 141-342 S251G/T252G/V253G/V254G/P255G, one chain of several) above, with M4G, L95G, M98G, V104G, V106G, V109G, V110G counted along it

U2AF65 1,2L 3Mut = U2AF65 1,2L 3Mut (human, UniProt P26368 141-342, Q147A;R227A;V254P); assay: as above
U2AF65 1,2L 3Mut, sequence (P26368 141-342 Q147A/R227A/V254P, one chain of several): as the sequence (P26368 141-342 S251G/T252G/V253G/V254G/P255G, one chain of several) above, with Q7A, R87A, G111S, G112T, G113V, G114P, G115P counted along it

U2AF65 1,2L Q147A = U2AF65 1,2L Q147A (human, UniProt P26368 141-342, Q147A); assay: as above
U2AF65 1,2L Q147A, sequence (P26368 141-342 Q147A, one chain of several): as the sequence (P26368 141-342 S251G/T252G/V253G/V254G/P255G, one chain of several) above, with Q7A, G111S, G112T, G113V, G114V, G115P counted along it

U2AF65 1,2L 3Gly = U2AF65 1,2L 3Gly (human, UniProt P26368 141-342, V249G;V250G;V254G); assay: as above
U2AF65 1,2L 3Gly, sequence (P26368 141-342 V249G/V250G/V254G, one chain of several): as the sequence (P26368 141-342 S251G/T252G/V253G/V254G/P255G, one chain of several) above, with V109G, V110G, G111S, G112T, G113V, G115P counted along it

U2AF65 1,2L [2] = target: T2, U2AF65 1,2L (human, UniProt P26368 141-342); assay: as above
T2 sequence (P26368 141-342, one chain of several): as the sequence (P26368 141-342 S251G/T252G/V253G/V254G/P255G, one chain of several) above, with G111S, G112T, G113V, G114V, G115P counted along it

U2AF65 1,2L [3] = target: T2, U2AF65 1,2L; assay: as above; remark: listed apart in the source
[4] = target: T3, full-length human U2AF^65 (residues 1–475) (human, UniProt P26368-1 1-475); assay: SEC; U2AF65 combined with slight excess U2AF35-UHM (ratio 1:1.2), dialysed overnight, heterodimer purified on Superdex-200 prep-grade in 150 mM NaCl, 25 mM HEPES pH 6.8, 0.2 mM TCEP; settings: both partners purified
T3 construct: U2AF65 (U2AF2), human, full length, residues 1-475; also called flU2AF^65; U2AF2; source: expressed as a GST fusion protein, purified (GST cleavage, SP-HiTrap ion exchange)
T3 sequence (P26368 whole entry, the tested form may be a part): as the sequence (P26368 whole entry, one chain of several) above

U2AF65 1,2L FRET [5] = target: T1, U2AF65 1,2L FRET; assay: smFRET; slide-tethered protein, 5 uM RNA; Anisotropy: 100 mM NaCl, 15 mM HEPES pH 6.8, 0.2 mM TCEP, 0.1 U/ul Superase-In, 30 nM RNA, 23 C; smFRET: 50 mM HEPES pH 7.4, 100 mM NaCl, room temperature

T1 sequence (P26368 113-343 A181C/C305A/Q324C, one chain of several): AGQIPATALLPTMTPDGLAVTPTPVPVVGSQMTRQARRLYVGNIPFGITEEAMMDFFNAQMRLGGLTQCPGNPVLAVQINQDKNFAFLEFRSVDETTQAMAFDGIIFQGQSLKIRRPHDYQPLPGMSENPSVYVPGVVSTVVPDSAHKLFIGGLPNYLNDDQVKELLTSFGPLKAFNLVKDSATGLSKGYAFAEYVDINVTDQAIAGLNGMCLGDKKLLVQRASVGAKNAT

B1: rArA-interrupted Py tract (ssRNA)
RNA: CUUUUUAAUUUCCA
B1: binds (U2AF65 1,2L FRET [1]).

B2: AdML Py tract 13mer (ssRNA)
RNA: CCCUUUUUUUUCC
Binder B2 has a Kd (dU2AF65 1,2L) of 123 ± 5 nM, a Kd (flU2AF65;U2AF35-UHM) of 30 ± 3 nM and a Kd (dU2AF65 1,2) of 5 ± 0.1 µM. It also gave a Kd (U2AF65 1,2L 5Gly) of 61 ± 3 nM, a Kd (U2AF65 1,2L NLALA) of 45 ± 3 nM and a Kd (U2AF65 1,2L V254P) of 137 ± 10 nM. It also gave a Kd (U2AF65 1,2L R227A) of 166 ± 2 nM, a Kd (U2AF65 1,2L 12Gly) of 88 ± 21 nM and a Kd (U2AF65 1,2L 3Mut) of 5.63 ± 0.07 µM. For the same binder, the Kd (U2AF65 1,2L Q147A) was 171 ± 21 nM and the Kd (U2AF65 1,2L 3Gly) was 47 ± 4 nM.

B3: 5'-4rU (ssRNA)
RNA: CCUUUUCCCCCCC
B3 showed a Kd (flU2AF65;U2AF35-UHM) of 41 ± 2 nM and a Kd (U2AF65 1,2L [2]) of 31 ± 3 nM.

B4: 3'-4rU (ssRNA)
RNA: CCCCCCCUUUUCC
For B4, the Kd (flU2AF65;U2AF35-UHM) was 414 ± 12 nM and the Kd (U2AF65 1,2L [2]) was 417 ± 10 nM.

B5: AdML Py tract rArA mutant (ssRNA)
RNA: CUUUUUAAUUUCC
B5 was tested, and the binding signal (U2AF65 1,2L [3]) was ~5 fold lower affinity than AdML.

B6: U2AF^35-UHM (U2AF homology motif; residues 43–146) (domain or fragment, UniProt Q01081-1 43-146, looked up)
chain: SQTIALLNIYRNPQNSSQSADGLRCAVSDVEMQEHYDEFFEEVFTEMEEKYGEVEEMNVCDNLGDHLVGNVYVKFRREEDAEKAVIDLNNRWFNGQPIHAELSP
notes: also called heterodimerization domain of the U2AF^35 subunit; U2AF1; source: expressed as a GST fusion protein, purified (GST cleavage, Q-HiTrap ion exchange)
B6: binds [4].

B7: AdML Py tract 12mer (ssRNA)
RNA: CCUUUUUUUUCC
B7: binds (U2AF65 1,2L FRET [5]).
